Measured values published in PMC6555533.

System: MBP-p33C (C-terminal soluble portion of p33 replication protein) (Tomato bushy stunt virus)
Test: biotin-RNA pull-down, anti-p33 immunoblot
Conditions: EMSA: 10 mM HEPES pH 7.4, 50 mM NaCl, 1 mM DTT, 1 mM EDTA, 5% glycerol, 2.5 mM MgCl2, 0.1 ug tRNA, 2 U RNase inhibitor, 10 ul, 0.1 pmol RNA (EMSA temperature …)

Substance: RII(+)
- binding signal (% of MBP control): 50
